In this assay the target is T1, ADAMTSL2 (a disintegrin and metalloproteinase with thrombospondin motifs-like 2), recombinant (human, UniProt Q86TH1 23-951).
T1 construct: ADAMTSL2, secreted glycoprotein; source: recombinant, purified as described previously (Koo et al., 2007)
T1 sequence (looked up): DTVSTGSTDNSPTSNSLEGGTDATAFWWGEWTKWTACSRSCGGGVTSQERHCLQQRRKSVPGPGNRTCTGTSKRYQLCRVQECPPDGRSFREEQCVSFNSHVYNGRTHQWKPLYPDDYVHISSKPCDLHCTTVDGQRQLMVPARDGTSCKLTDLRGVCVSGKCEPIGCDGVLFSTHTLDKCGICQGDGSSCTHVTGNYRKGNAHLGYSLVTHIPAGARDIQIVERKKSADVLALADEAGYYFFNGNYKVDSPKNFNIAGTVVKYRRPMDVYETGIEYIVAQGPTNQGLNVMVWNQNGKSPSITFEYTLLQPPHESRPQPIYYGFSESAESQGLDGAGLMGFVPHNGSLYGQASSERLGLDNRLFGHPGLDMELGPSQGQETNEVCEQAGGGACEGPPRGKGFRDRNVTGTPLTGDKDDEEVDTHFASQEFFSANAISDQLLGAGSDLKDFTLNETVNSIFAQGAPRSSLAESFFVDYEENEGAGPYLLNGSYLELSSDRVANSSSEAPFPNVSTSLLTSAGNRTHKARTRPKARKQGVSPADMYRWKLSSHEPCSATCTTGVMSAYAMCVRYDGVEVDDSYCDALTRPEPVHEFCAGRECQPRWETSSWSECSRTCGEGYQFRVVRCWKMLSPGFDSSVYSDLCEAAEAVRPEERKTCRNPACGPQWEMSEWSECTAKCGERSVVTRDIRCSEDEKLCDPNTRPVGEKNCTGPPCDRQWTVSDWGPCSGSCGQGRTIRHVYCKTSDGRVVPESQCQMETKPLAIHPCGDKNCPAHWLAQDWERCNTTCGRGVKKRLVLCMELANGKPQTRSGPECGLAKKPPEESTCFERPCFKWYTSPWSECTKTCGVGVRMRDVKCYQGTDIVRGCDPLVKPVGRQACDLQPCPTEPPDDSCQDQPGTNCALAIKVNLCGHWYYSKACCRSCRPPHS
In words: SPR; ADAMTSL2 immobilised by amine coupling on a CM5 chip (about 1500 RU), fibrillin fragments injected; BIAcore 3000; 25°C; 10 mM HEPES pH 7.4, 150 mM NaCl, 2 mM CaCl2, 0.005% surfactant P20; 20 ul/min; n=2. Conditions: both partners purified.

B1: C-terminal half of fibrillin-1 (FBN1), recombinant fragment (domain or fragment)
chain: not shown
B1: the equilibrium dissociation constant (Kd) came out at 8 nM.

B2: N-terminal half of fibrillin-1 (FBN1), recombinant fragment (domain or fragment)
chain: not shown
On to B2, for which the Kd stood at 14.3 nM.

The record behind these values is publication PMC4415891, “Adamtsl2 deletion results in bronchial fibrillin microfibril accumulation and bronchial epithelial dysplasia – a novel mouse model providing insights into geleophysic dysplasia” (Disease Models & Mechanisms, 2015).
